According to patent CN114651011A (dated 2022):
Substitutions are numbered along the chain they refer to. Each block holds one binder with its values, some of them ahead of it.

Legend:
[1] = target: T1, 人CD43 (human CD43, UMG1 epitope), endogenous on human cells, cell lines and tissues (human, UniProt P16150 20-400); assay: flow cytometry on PBMC of healthy donors, 1 μg/ml, FITC secondary antibody
T1 construct: The cells carry the natural protein; also called UMG1表位; UMG1抗原
T1 sequence: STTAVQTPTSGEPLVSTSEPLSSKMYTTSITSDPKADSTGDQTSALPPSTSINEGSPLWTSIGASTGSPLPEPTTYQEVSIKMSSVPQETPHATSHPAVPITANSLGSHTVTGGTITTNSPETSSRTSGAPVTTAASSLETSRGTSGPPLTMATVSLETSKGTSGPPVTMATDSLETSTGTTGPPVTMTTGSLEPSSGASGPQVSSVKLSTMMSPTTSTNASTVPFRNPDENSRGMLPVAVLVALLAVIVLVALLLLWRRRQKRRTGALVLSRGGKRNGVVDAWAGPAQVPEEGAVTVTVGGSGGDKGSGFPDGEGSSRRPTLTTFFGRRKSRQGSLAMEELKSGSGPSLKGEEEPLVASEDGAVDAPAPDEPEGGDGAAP

[2] = target: T1, 人CD43 (human CD43, UMG1 epitope), …; assay: immunofluorescence on fixed THP-1-derived macrophages without or with PANC1 cells
[3] = target: T2, CD43#6 (CD43 with aa 64 to 78 deleted), expressed in HEK293T cells (human, UniProt P16150 20-400); assay: FACS with h-UMG1-PE on GFP-positive transfected HEK293T cells
T2 construct: also called CD43克隆#6; 第五CD43变体; not shown: His tag (and GFP by the name of the vector pLenti-CMV-(insert)-Histag-GFP-2A-Puro)
T2 sequence: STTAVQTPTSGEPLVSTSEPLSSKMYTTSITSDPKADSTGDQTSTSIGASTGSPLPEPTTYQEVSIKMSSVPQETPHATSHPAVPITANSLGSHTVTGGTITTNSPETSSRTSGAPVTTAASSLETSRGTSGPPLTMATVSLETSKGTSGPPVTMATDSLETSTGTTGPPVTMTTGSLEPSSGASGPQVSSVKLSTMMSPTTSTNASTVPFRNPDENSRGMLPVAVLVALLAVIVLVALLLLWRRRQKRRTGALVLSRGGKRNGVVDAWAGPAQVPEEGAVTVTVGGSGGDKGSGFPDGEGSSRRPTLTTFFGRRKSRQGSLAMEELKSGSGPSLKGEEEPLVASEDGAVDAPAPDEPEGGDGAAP

[4] = target: T3, 重组人CD43细胞外部分 (aa 20-253), produced in E. coli, not glycosylated (human, UniProt P16150 20-253); assay: SPRi (PlexArray HT), antibody printed on the gold chip, recombinant CD43 aa 20-253 from E. coli as analyte, 25°C
T3 construct: also called 重组人CD43分析物(aa 20-253); CD43的无糖基化细胞外部分
T3 sequence: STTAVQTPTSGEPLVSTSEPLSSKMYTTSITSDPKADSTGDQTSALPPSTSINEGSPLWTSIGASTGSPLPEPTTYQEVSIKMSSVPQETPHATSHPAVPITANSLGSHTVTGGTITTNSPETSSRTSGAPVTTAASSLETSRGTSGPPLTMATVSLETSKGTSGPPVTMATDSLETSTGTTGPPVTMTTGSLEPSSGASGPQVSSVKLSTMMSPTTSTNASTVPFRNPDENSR

[5] = target: T4, 野生型肽 PPSTSINEGSPLWTS (aa 66-80 of human CD43), peptide of the epitope substitution scan (human); assay: substitution scan peptide microarray, antibody at 1, 10, 100 and 250 μg/ml
T4 construct: also called wild-type peptide; 人CD43的线性表位，用于取代筛选
T4 peptide: PPSTSINEGSPLWTS

[6] = target: T1, 人CD43 (human CD43, UMG1 epitope), …; assay: flow cytometry (MFI) on HPB-ALL and H9 cells, 1 μg/ml, FITC mouse anti-human IgG

binding result [3]: no binding (tested: 1μg/ml) | Kd [4]: 99.4 nM | binding result [5]: binds
B3: h-UMG1 (人源化UMG1单克隆抗体, H3-L4) (antibody, human IgG1, kappa, V domains shown)
VH: EVQLVESGGGLVQPGGSLRLSCVASGFTFSSFGMHWVRQAPGKGLEWVAYISSGSGNFYYVDTVKGRFTISRDNAKNSLYLQMNSLRAEDTAVYYCARSTYYHGSRGAMDYWGQGTLVTVSS
VL: QVVMTQSPAFLSVTPGEKVTITCSASSSVSSMYWYQLKPDQAPKLLIYDTSKMASGVPIRFSGSGSGTDFTFTVSSVEAEDAATYYCQQWSSYPPITFGGGTKVEIKR
notes: IgG1; also called h-UMG1单抗; 人源化单克隆抗CD43抗体

binding result [6]: binds
B13: 人源化UMG1抗体 H3-L2 (antibody, IgG1, V domains shown)
VH: B3 VH
VL: EIALTQSPATLSLSPGERATLSCSASSSVSSMYWYQLKPGLAPRLLIYDTSKMASGIPIRFSGSGSGTDFTLTVSRVEPEDFAVYYCQQWSSYPPITFGQGTRLEIK
notes: one of the 16 combinations of H1-4 with L1-4

binding result [6]: binds
B14: 人源化UMG1抗体 H4-L2 (antibody, IgG1, V domains shown)
VH: B3 VH with E1Q, L11V, A75S, S78T
VL: B13 VL
notes: as for B13

binding result [6]: binds
B15: 人源化UMG1抗体 H1-L1 (antibody, IgG1, V domains shown)
VH: B3 VH with V23A, A49S
VL: B13 VL with A3V, L37Q, I59D, V74I, V77L
notes: as for B13

binding result [6]: binds
B16: 人源化UMG1抗体 H4-L4 (antibody, IgG1, V domains shown)
VH: B3 VH with E1Q, L11V, A75S, S78T
VL: QVVMTQSPAFLSVTPGEKVTITCSASSSVSSMYWYQLKPDQAPKLLIYDTSKMASGVPIRFSGSGSGTDFTFTVSSVEAEDAATYYCQQWSSYPPITFGGGTKVEIK
notes: as for B13

binding result [6]: binds
B17: 人源化UMG1抗体 H1-L2 (antibody, IgG1, V domains shown)
VH: B3 VH with V23A, A49S
VL: B13 VL
notes: as for B13

binding result [6]: binds
B18: 人源化UMG1抗体 H3-L1 (antibody, IgG1, V domains shown)
VH: B3 VH
VL: B13 VL with A3V, L37Q, I59D, V74I, V77L
notes: as for B13

Further lines, the binder ahead of its results:

B1: 单克隆抗体UMG1 (murine anti-human CD43 antibody produced by the hybridoma deposited as ICLC PD n°16001) (antibody, V domains shown)
VH: DVQLVESGGGLVQPGGSRKLSCVASGFTFSSFGMHWVRQAPEKGLEWVAYISSGSGNFYYVDTVKGRFTISRDNPKNTLFLQMTSLRSEDTAMYYCARSTYYHGSRGAMDYWGQGTSVTVSS
VL: QIALTQSPAIMSASPGEKVTMTCSASSSVSSMYWYQLKPGSSPRLLIYDTSKMASGVPIRFSGSGSGTSFSLTVSRVEAEDAATYYCQQWSSYPPITFGAGSKLELK
notes: Murine antibody, kappa light chain; the negative control is a murine IgG1; also called m-UMG1; mUMG1
binding result [1]: binds

B2: ch-UMG1 (嵌合抗体, murine UMG1 variable regions on human IgG1 constant regions) (antibody, V domains shown)
VH: B1 VH
VL: QIALTQSPAIMSASPGEKVTMTCSASSSVSSMYWYQLKPGSSPRLLIYDTSKMASGVPIRFSGSGSGTSFSLTVSRVEAEDAATYYCQQWSSYPPITFGAGSKLELKR
notes: also called UMG1-CH; 嵌合单克隆抗体
binding result [2]: binds

B4: 人源化UMG1抗体 H2-L3 (antibody, IgG1, V domains shown)
VH: B3 VH with A49S
VL: B16 VL with L37Q, I59S, V74I, V77L
notes: as for B13
binding result [6]: binds

B5: 人源化UMG1抗体 H2-L1 (antibody, IgG1, V domains shown)
VH: B3 VH with A49S
VL: B13 VL with A3V, L37Q, I59D, V74I, V77L
notes: as for B13
binding result [6]: binds

B6: 人源化UMG1抗体 H4-L1 (antibody, IgG1, V domains shown)
VH: B3 VH with E1Q, L11V, A75S, S78T
VL: B13 VL with A3V, L37Q, I59D, V74I, V77L
notes: as for B13
binding result [6]: binds

B7: 人源化UMG1抗体 H2-L4 (antibody, IgG1, V domains shown)
VH: B3 VH with A49S
VL: B16 VL
notes: as for B13
binding result [6]: binds

B8: 人源化UMG1抗体 H3-L3 (antibody, IgG1, V domains shown)
VH: B3 VH
VL: B16 VL with L37Q, I59S, V74I, V77L
notes: as for B13
binding result [6]: binds

B9: 人源化UMG1抗体 H1-L3 (antibody, IgG1, V domains shown)
VH: B3 VH with V23A, A49S
VL: B16 VL with L37Q, I59S, V74I, V77L
notes: as for B13
binding result [6]: binds

B10: 人源化UMG1抗体 H4-L3 (antibody, IgG1, V domains shown)
VH: B3 VH with E1Q, L11V, A75S, S78T
VL: B16 VL with L37Q, I59S, V74I, V77L
notes: as for B13
binding result [6]: binds

B11: 人源化UMG1抗体 H2-L2 (antibody, IgG1, V domains shown)
VH: B3 VH with A49S
VL: B13 VL
notes: as for B13
binding result [6]: binds

B12: 人源化UMG1抗体 H1-L4 (antibody, IgG1, V domains shown)
VH: B3 VH with V23A, A49S
VL: B16 VL
notes: as for B13
binding result [6]: binds
